*1 amine or outer side, *2 acyl side, *3 side chain or, on linkers, in order; H or OH if unused. [ ]: non-standard residue; d: D form. The star is where a group is joined. Tyr(OMe) = methoxy tyrosine, COc1ccc(C[C@H](N[*:1])C(=O)[*:2])cc1; WPEG40K = not defined here; Orn = NCCC[C@H](N)C(=O)O; Abu = CC[C@H](N)C(=O)O; Hexanoyl = CCCCCC(=O)*; Aib = CC(C)(N)C(=O)O
T1: rat VPAC1 receptor (rat, UniProt P30083 31-459)
T1 sequence (looked up): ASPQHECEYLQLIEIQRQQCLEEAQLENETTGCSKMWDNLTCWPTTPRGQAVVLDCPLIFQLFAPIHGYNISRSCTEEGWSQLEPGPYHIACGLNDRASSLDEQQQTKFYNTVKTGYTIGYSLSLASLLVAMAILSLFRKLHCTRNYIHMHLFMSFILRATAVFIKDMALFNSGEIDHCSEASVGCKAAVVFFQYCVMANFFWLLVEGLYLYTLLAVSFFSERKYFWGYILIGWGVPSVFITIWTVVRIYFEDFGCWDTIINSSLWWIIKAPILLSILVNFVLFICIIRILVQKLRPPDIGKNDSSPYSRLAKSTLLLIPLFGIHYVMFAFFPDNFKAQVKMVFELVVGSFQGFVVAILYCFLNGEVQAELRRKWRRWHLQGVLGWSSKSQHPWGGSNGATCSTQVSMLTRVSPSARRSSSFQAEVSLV

T2: rat VPAC2 receptor (rat, UniProt P35000 23-437)
T2 sequence (looked up): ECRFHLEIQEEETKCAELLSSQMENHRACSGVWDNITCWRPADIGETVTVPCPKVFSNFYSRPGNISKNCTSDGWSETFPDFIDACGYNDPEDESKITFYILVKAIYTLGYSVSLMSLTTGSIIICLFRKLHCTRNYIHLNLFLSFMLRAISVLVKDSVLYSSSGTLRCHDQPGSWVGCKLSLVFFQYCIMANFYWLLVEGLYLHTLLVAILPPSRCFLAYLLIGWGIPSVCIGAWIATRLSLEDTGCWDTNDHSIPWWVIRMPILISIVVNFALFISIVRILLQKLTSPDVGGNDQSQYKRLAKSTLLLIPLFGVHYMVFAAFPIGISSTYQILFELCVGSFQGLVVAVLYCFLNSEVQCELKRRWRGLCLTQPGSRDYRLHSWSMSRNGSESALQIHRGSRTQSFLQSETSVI

T3: human VPAC2 receptor (human, UniProt P41587 24-438)
T3 sequence (looked up): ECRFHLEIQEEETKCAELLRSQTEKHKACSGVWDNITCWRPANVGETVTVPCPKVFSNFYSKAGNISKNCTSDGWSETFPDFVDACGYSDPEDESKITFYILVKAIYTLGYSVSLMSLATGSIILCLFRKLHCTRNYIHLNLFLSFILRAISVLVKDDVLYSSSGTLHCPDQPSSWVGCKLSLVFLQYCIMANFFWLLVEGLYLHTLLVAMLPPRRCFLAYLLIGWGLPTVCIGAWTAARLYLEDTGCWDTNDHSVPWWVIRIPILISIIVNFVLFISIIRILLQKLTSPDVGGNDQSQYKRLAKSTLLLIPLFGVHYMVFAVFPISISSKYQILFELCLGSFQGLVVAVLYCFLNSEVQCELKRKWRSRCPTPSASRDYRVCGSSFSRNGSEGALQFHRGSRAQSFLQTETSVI


Tests used:
rat VPAC1 receptor = biological target: T1, rat VPAC1 receptor; assay: cell-based or functional assay
rat VPAC2 receptor = biological target: T2, rat VPAC2 receptor; assay: cell-based or functional assay
human VPAC2 receptor [1] = biological target: T3, human VPAC2 receptor; assay: cell-based or functional assay
human VPAC2 receptor [2] = biological target: T3, human VPAC2 receptor; assay: filter binding, VPAC2 cell membranes, displacement of 125I-VIP
Experimental: Binding assays: Membrane prepared from a stable VPAC2 cell line (see Example 3) or from cells transiently transfected with human VPAC1 or PAC1 are used.
The assay plate is filled with 25 μL assay buffer, 25 μL membranes (2.5 μg) suspended in assay buffer, 25 μL agonist in assay buffer, and 25 μL tracer (about 40000 cpm) in assay buffer. The filled plate is incubated for 1 hour with shaking.
The transfer from assay plate to filter plate is conducted. The blocking buffer is aspirated by vacuum filtration and washed two times with flush buffer. 90 μL is transferred from the assay plate to the filter plate. The 90 μL transferred from assay plate is aspirated and washed three times with 200 μL flush buffer. The plastic support is removed. It is dried for 1 hour at 60° C. 30 μL Microscint is added. The count is performed.

Row | Binder | Rat VPAC1 Receptor: DiscoveRx: (EC50; nM) (rat VPAC1 receptor) | Rat VPAC2 Receptor: DiscoveRx: (EC50; nM) (rat VPAC2 receptor) | Human VPAC2 Receptor: Alphascreen (EC50; nM) (human VPAC2 receptor [1]) | IC50 (human VPAC2 receptor [2]) | Human VPAC2 Receptor: DiscoveRx (EC50; nM) (human VPAC2 receptor [1])
1 | HSDAVFTEQYTXLRXQVAAXXYLXSIXXGGPSSGAPPPS (C6-HSDAVFTEQY(OMe)TOrnLRAibQVAAAibOrnYLK(WPEG40K)SIOrnOrnGGPSSGAPPPS-NH2) [P531] | 301 nM | 69.9 nM | 94.6 nM | 69.7 nM | 
2 | HSDAVFTEQYTXLRXQVAAXXYLQSIXXGGPSSGAPPPS (C6-HSDAVFTEQY(OMe)TOrnLRAibQVAAK(CO(CH2)2SPEG40K)OrnYLQSIOrnOrnGGPSSGAPPPS-NH2) [P475] | > 1000 nM | 220 nM | 109 nM | 436 nM | 
3 | HSDAVFTEQYTXLRXQLAXXXYLQXIXCXGGPSSGAPPPS (C6-HSDAVFTEQY(OMe)TOrnLRAibQLAAbuAibOrnYLQAibIOrnC(PEG40K)OrnGGPSSGAPPPS-NH2) [P537] | 206 nM | 38.8 nM | 32 nM | 17.2 nM | 
4 | HSDAVFTEQYTXLRXQLAXXXYLQXIXCXGGPSSGAPPPC (C6-HSDAVFTEQY(OMe)TOrnLRAibQLAAbuAibOrnYLQAibIOrnC(PEG20K)OrnGGPSSGAPPPC(PEG20K)-NH2) [P553] | 262 nM | 22 nM | 15 nM | 21.7 nM | 
5 | HSDAVFTEQYTXLRXQLAXXXYLQSIXCXGGPSSGAPPPS (C6-HSDAVFTEQY(OMe)TOrnLRAibQLAAbuAibOrnYLQSIOrnC(PEG40K)OrnGGPSSGAPPPS-NH2) [P539] | 32.6 nM | 21 nM | 10.7 nM | 13.5 nM | 47.3 nM
6 | HSDAVFTEQYTXLRXQLAXXXYLQSIXCXGGPSSGAPPPC (C6-HSDAVFTEQY(OMe)TOrnLRAibQLAAbuAibOrnYLQSIOrnC(PEG20K)OrnGGPSSGAPPPC(PEG20K)-NH2) [P555] | 68.9 nM | 32.5 nM | 22.5 nM | 15.4 nM | 8.1 nM
7 | C6-HSDAVFTEQ[Tyr(OMe)]T[Orn]LRC(PEG 40 kDa)QLA[Abu][Aib][Orn]YLQ[Aib]I[Orn][Orn]GGPSSGAPPPS-NH2 [P547] | 76.2 nM | 150 nM | 62 nM | 5.6 nM | 
8 | HSDAVFTEQYTXLRXQLAXXXYLQSIXXXGGPSSGAPPPC (C6-HSDAVFTEQY(OMe)TOrnLRAibQLAAbuAibOrnYLQSIOrnK(CO(CH2)2SPEG20K)OrnGGPSSGAPPPC(PEG20K)-NH2) [P551] | 172 nM | 13.2 nM | 15.6 nM | 16.6 nM | 
9 | Hexanoyl-HSDAVFTEQ[Tyr(OMe)]T[Orn]LRK(WPEG40K)QLA[Abu][Aib][Orn]YLQ[Aib]I[Orn][Orn]GGPSSGAPPPS-NH2 (reading uncertain) [P557] | 581 nM | 397 nM |  | 380 nM | 108 nM
10 | HSDAVFTEQYTXLRCQVAAXXYLQSIXXGGPSSGAPPPS (C6-HSDAVFTEQY(OMe)TOrnLRC(PEG40K)QVAAAibOrnYLQSIOrnOrnGGPSSGAPPPS-NH2) [P483] | 224 nM | 128 nM | 33.5 nM | 37.3 nM | 
11 | HSDAVFTEQYTXLRXQLAAXXYLQSIXXCGGPSSGAPPPS (C6-HSDAVFTEQY(OMe)TOrnLRAibQLAAAibOrnYLQSIOrnOrnC(PEG40K)GGPSSGAPPPS-NH2) [P560] | 156 nM | 20.4 nM | 13.8 nM | 11.6 nM | 11.3 nM

Reference: patent US20080234198A1 (Eli Lilly, published 2008)
